Data on five sequences can be found in publication PMC3836757.

Series [1] has as its target RNA polymerase core enzyme;sigma 32 (RpoH) (Escherichia coli;Ehrlichia chaffeensis) (UniProt P0A7Z4+P0A8V2+P0A8T7+P0A800+Q2GGG9). The series can be described thus: EMSA. To be noted: 50 mM Tris-acetate pH 8.0, 50 mM K-acetate, 8.1 mM Mg-acetate, 27 mM NH4-acetate, 100 ug/ml BSA, 5% glycerol, 50 ug/ml poly(dI-dC), 20 fmol each probe and RNAP …. In general terms: A gel shift assay detects complexes by their altered migration in electrophoresis.

Series [2] has as its target RNA polymerase core enzyme;sigma 70 (RpoD) (Escherichia coli;Ehrlichia chaffeensis) (UniProt P0A7Z4+P0A8V2+P0A8T7+P0A800+Q2GG75). As to the kind of experiment: EMSA. The conditions noted are these: 50 mM Tris-acetate pH 8.0, 50 mM K-acetate, 8.1 mM Mg-acetate, 27 mM NH4-acetate, 100 ug/ml BSA, 5% glycerol, 50 ug/ml poly(dI-dC), 20 fmol each probe and RNAP ….

With “AAGCAAGTCTACTCATATTTTTATTAATTAAGTAGTAAAGTTAACTATAGATTTTATTAAAATTTTTATTCTAATCACTTTAAATATCAATTACTTTTGTTGTAAATTTGAAAGAAATTTTATATTCTAGACTTGCTTTTCTTTATTTCTTTCATTATTCTTAAATTTTTATTATCTTTTATAAAAGGTTTATTAACATG (double strand) [p28-Omp14 promoter probe]”, the binding entry is on record as “binds more weakly” in series [1] and “binds” in series [2].

As to “ATTGCAGATTAATTAATAATGCTTTAAGTAATAACAAATAAATTTAGTTGACTATATGAACTAACCTAATATCCTAAATCTTGTTCAGTTATGTAAAATTAGGAGTTAAAATTA (double strand) [hup promoter probe]”, the values for the binding result in series [1] and in series [2] were “binds more weakly” and “binds”, respectively.

For the sequence “CTGACGTAATATATTAAATTTTCCTTACAAAAGTTACCGATATTTTATACAAAAATTTATATTCTGACTTGCTTTTATATGACACTTCTACTATTGTTAATTTATTTGTCACTATTAGGTTATATATGAATTACA (double strand) [p28-Omp19 promoter probe]”, the binding entry in series [1] is recorded as “binds more weakly”; in series [2], “binds”.

As to “TAACTTACTTAAAAAATTAACTACTTAAATATCAACGATGTTTTCAGTATCAAGTCAATTGATTTTTTATGTGTTATGTAAACTGTTACAGAGTAATATAATATTTCTACTGGGTCCTATAAAGTTCTAACCTTGTAAACATTTGTGCAATATGTATTATAAAATTTATTGATTGATACTTGAAATTAGATTTCTTGATATTATATATGATCTTAGCTAGTAGTATCTGATGCTACTGATAATTTATTTTTTTATAGAGGTAG (double strand) [groE promoter probe]”, the binding result in series [1] is “binds”.

Take “TTCATAAATTTATGAACTTGTGTTAAATGGGGTTGTAATCTTATGATTTGGTTATTATATCTGTGATTATAGTTTTGATTTTTATGTAAGGGGGCTATTTATGGCTGTTATAGGTATAGATTTAGGTAC (double strand) [dnaK promoter probe]”: the binding entry in series [1] is “binds”.
